In patent publication US20200339702A1 (ULTRAHUMAN THIRTEEN, published 2020):

Key:
[1] = target: T1, human ERBB3 human Fc tagged recombinant protein (human, UniProt P21860 20-643); assay: direct binding ELISA on coated human ERBB3-Fc, IgG1null titrated
T1 construct: also called human ERBB3-Fc; huERBB3
Method: Binding and cross-reactivity of the lead panel to the recombinant proteins was initially assessed by binding ELISA. The human ERBB3 human Fc tagged recombinant protein and the rhesus monkey ERBB3 human Fc tagged recombinant protein were coated to the surface of MaxiSorp™ flat-bottom 96 well plate at 1 μg/ml. The purified IgG samples were titrated in two fold serial dilutions starting from 500 nM to 0.008 nM and allowed to bind to the coated antigens. The Fabs were detected using mouse anti-c-myc antibody followed by donkey anti-mouse IgG conjugated to horseradish peroxidase. The IgGs were detected using the mouse anti-human IgG conjugated to horseradish peroxidase. Binding signals were visualized with 3,3′,5,5′-Tetramethylbenzidine Substrate Solution (TMB) and the absorbance measured at 450 nm.

[2] = target: T2, rhesus monkey ERBB3 His tag, monomeric (rhesus monkey (Macaca mulatta), UniProt P21860 20-643 (human entry), limits assumed); assay: SPR (Biacore), captured IgG, monomeric ERBB3-His analyte
T2 chain: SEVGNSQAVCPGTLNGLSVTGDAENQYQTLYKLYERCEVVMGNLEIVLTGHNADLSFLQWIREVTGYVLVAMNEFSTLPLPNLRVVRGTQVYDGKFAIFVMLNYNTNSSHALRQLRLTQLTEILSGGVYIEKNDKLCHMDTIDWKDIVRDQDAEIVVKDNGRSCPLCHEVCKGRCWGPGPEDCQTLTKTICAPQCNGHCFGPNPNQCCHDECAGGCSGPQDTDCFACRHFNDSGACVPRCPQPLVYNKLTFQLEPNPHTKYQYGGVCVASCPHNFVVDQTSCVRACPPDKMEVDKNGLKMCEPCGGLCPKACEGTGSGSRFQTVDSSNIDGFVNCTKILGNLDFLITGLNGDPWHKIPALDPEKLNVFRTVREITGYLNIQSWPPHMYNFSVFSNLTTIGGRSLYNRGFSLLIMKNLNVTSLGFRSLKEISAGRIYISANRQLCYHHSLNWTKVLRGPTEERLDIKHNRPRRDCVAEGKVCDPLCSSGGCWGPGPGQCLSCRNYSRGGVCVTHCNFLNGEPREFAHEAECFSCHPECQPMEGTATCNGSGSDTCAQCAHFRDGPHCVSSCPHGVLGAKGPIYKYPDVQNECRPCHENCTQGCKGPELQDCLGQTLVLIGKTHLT

[3] = target: T3, human ERBB3 His tagged, monomeric (human, UniProt P21860 20-643, biotinylated in the Alphascreen assays (sites not given)); assay: as above
T3 construct: Used unbiotinylated as Biacore analyte and biotinylated in Alphascreen; treated as one molecule; also called human ERBB3-His (Acrobiosystems); biotinylated monomeric human ERBB3

[4] = target: T3, human ERBB3 His tagged, monomeric; assay: SPR (Biacore)
Method: Affinity (KD) of purified IgGs was determined via SPR with antigen in-solution on a Biacore® 3000 (GE). A mouse anti-human antibody (CH1 specific) was immobilized on a CM5 Sensor Chip to a level of 2000 RU in acetate buffer at pH 4.5 using amine coupling following the Wizard instructions for two channels. One channel was used for background signal correction. The standard running buffer HBS-EP pH 7.4 was used. Regeneration was performed with a single injection of 10 μl of 10 mM Glycine at pH 1.5 at […]. IgG samples were injected for 2 minutes at 50 nM at 30 μl/min followed by an off-rate of 60 seconds. The monomeric antigen (human ERBB3 His tagged or rhesus monkey ERBB3 His tag) was injected in two fold serial dilutions from 3 nM down to 0.2 nM, for 2 minutes at 30 μl/min followed by an off-rate of 300 seconds. The obtained sensorgrams were analysed using the Biacore® 3000 evaluation (BlAevaluation) software. The KD was calculated by simultaneous fitting of the association and dissociation phases to a 1:1 Langmuir binding model.

[5] = target: T3, human ERBB3 His tagged, monomeric; assay: Alphascreen competition in solution, competitor h24C05 IgG1null, biotinylated human ERBB3-His
Method: The AlphaScreen assay (Perkin Elmer) was performed in a 25 μl final volume in 384-well white microtiter plates (Greiner). The reaction buffer contained 1×PBS pH 7.3 (Oxoid, Cat. nr. BR0014G) and 0.05% (v/v) Tween® 20 (Sigma, Cat. nr. P9416). Purified IgG samples were titrated in three fold serial dilutions starting at 100 nM final concentration and incubated with biotinylated human ERBB3-His (Acrobiosystems) at 1 nM final concentration for 20 minutes at room temperature. The parental IgG and the anti-human IgG1 Acceptor beads at were added and the mix was incubated for 1 hour at room temperature. Followed by addition of the Streptavidin Donor beads and incubation for 30 minutes at room temperature. The emission of light was measured in the EnVision multilabel plate reader (Perkin Elmer) and analysed using the EnVision manager software. Values were reported as Counts Per Second (CPS) and corrected for crosstalk.

B1: 09D12 IgG1null (antibody, V domains shown)
VH: QVQLVESGGGLVKPGGSLRLSCAASGFTFSDYGMSWIRQAPGKGLEWVSTISDGGSYTYYADSVKGRFTISRDNAKNSLYLQMNSLRAEDTAVYYCAREYGDYDGFDYWGQGTLVTVSS
VL: DIQMTQSPSSLSASVGDRVTITCRASQSISSYLNWYQQKPGKAPKLLIYAASSLDSGVPSRFSGSGSGTDFTLTISSLQPEDFATYYCLQYDSTPLTFGGGTKVEIK
notes: Human IgG1null and human Ckappa
EC50 (read off the curve) [1]: ~0.2 nM
Kd [2]: 0.69 nM
koff [2]: 0.0074 s⁻¹
kon [2]: 1.1e+07 M⁻¹ s⁻¹
Kd [3]: 0.27 nM
koff [3]: 0.0035 s⁻¹
kon [3]: 1.3e+07 M⁻¹ s⁻¹

B2: TTP IgG1null (antibody, V domains shown)
VH: QVQLVESGGGLVKPGGSLRLSCAASGFTFSDYGMSWIRQAPGKGLEWVSTISDSGSTIYYADSVKGRFTISRDNAKNSLYLQMNSLRAEDTAVYYCAREYGDYDGFDYWGQGTLVTVSS
VL: DIQMTQSPSSLSASVGDRVTITCRASQSISSYLNWYQQKPGKAPKLLIYAASSLQSGVPSRFSGSGSGTDFTLTISSLQPEDFATYYCLQYDSTPLTFGGGTKVEIK
notes: Designer clone; Human IgG1null and human Ckappa; also called Total Theoretically Possible clone
fold loss of KD against clone MH5 [4]: ~2 fold
EC50 (read off the curve) [1]: ~0.3 nM
Kd [3]: 1.2 nM
koff [3]: 0.073 s⁻¹
kon [3]: 6.2e+07 M⁻¹ s⁻¹
IC50 (read off the curve) [5]: ~5 nM
